Target: Flag-tagged PDI-WT (UniProt P07237)
Assay: co-IP; Flag-M2 affinity resin on COS-7 lysates (50 mM TrisHCl, 150 mM NaCl); PDI-Flag co-expressed with one sGC subunit or one α construct; Western blot, densitometry of bound over input

Chain of Flag-tagged PDI-WT (P07237 18-508): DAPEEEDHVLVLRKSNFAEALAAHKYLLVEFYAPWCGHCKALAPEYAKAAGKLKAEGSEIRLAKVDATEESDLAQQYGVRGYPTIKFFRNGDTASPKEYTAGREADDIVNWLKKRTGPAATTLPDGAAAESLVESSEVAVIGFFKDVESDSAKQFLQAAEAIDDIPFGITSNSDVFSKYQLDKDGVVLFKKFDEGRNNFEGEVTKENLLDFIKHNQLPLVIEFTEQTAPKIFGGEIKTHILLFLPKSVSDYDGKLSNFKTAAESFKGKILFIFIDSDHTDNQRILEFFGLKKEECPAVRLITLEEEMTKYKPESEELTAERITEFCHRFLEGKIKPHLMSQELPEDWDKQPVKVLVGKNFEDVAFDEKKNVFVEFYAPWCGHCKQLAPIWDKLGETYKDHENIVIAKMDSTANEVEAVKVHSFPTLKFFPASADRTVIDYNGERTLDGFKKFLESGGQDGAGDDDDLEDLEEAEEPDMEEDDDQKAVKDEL

Substance | sGC bound over input (densitometry) | bound vs. input (densitometry)
sGC β WT, expressed in COS-7 cells (from UniProt Q02153 1-619) (enzyme) | 0.74 | –
sGC α WT, expressed in COS-7 cells (from UniProt Q02108 1-690) (enzyme) | 1.08 | 1.01

From paper PMC4664405
